Biological target: T1, FcγRIa extracellular domain with C-terminal His tag (human, UniProt P12314 16-292)
T1 construct: extracellular domain; also called FcgRI; CD64; not shown: His tag at the C terminus
Assay: SPR Biacore, relative FcγRIa binding vs GpH7-A5/GpH7-B3/GpL16-k0

T1 sequence (P12314 16-292): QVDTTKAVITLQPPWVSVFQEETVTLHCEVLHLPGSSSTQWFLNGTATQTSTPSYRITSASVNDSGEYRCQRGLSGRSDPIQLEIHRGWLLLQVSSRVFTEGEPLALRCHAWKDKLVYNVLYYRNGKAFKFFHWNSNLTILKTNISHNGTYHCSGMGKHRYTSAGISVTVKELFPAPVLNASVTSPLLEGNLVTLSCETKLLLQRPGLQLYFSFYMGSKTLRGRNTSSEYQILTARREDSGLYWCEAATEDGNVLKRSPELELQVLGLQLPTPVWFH

He/Con_1a	Binder
103 % of HeCon Ab (=100)	GpH7-A5/GpH7-B3 variant S267_01G/GpL16-k0 (antibody, human IgG1, kappa, mutation in one H chain only; also called He Ab S267_01G; S267G) heavy 1: not shown heavy 2: not shown light: DIVMTQSPLSLPVTPGEPASISCQASESLVHSNRNTYLHWYLQKPGQSPQLLIYKVSNRFSGVPDRFSGSGSGTDFTLKISRVEAEDVGVYYCSQNTHVPPTFGQGTKVEIERTVAAPSVFIFPPSDEQLKSGTASVVCLLNNFYPREAKVQWKVDNALQSGNSQESVTEQDSKDSTYSLSSTLTLSKADYEKHKVYACEVTHQGLSSPVTKSFNRGEC
114 % of HeCon Ab (=100)	GpH7-A5/GpH7-B3 variant S298_06M/GpL16-k0 (antibody, human IgG1, kappa, mutation in one H chain only; also called He Ab S298_06M; S298M) heavy 1: not shown heavy 2: not shown light: DIVMTQSPLSLPVTPGEPASISCQASESLVHSNRNTYLHWYLQKPGQSPQLLIYKVSNRFSGVPDRFSGSGSGTDFTLKISRVEAEDVGVYYCSQNTHVPPTFGQGTKVEIERTVAAPSVFIFPPSDEQLKSGTASVVCLLNNFYPREAKVQWKVDNALQSGNSQESVTEQDSKDSTYSLSSTLTLSKADYEKHKVYACEVTHQGLSSPVTKSFNRGEC
101 % of HeCon Ab (=100)	GpH7-A5/GpH7-B3 variant S239_19Q/GpL16-k0 (antibody, human IgG1, kappa, mutation in one H chain only; also called He Ab S239_19Q; S239Q) heavy 1: not shown heavy 2: not shown light: DIVMTQSPLSLPVTPGEPASISCQASESLVHSNRNTYLHWYLQKPGQSPQLLIYKVSNRFSGVPDRFSGSGSGTDFTLKISRVEAEDVGVYYCSQNTHVPPTFGQGTKVEIERTVAAPSVFIFPPSDEQLKSGTASVVCLLNNFYPREAKVQWKVDNALQSGNSQESVTEQDSKDSTYSLSSTLTLSKADYEKHKVYACEVTHQGLSSPVTKSFNRGEC
110 % of HeCon Ab (=100)	GpH7-A5/GpH7-B3 variant S267_09D/GpL16-k0 (antibody, human IgG1, kappa, mutation in one H chain only; also called He Ab S267_09D; S267D) heavy 1: not shown heavy 2: not shown light: DIVMTQSPLSLPVTPGEPASISCQASESLVHSNRNTYLHWYLQKPGQSPQLLIYKVSNRFSGVPDRFSGSGSGTDFTLKISRVEAEDVGVYYCSQNTHVPPTFGQGTKVEIERTVAAPSVFIFPPSDEQLKSGTASVVCLLNNFYPREAKVQWKVDNALQSGNSQESVTEQDSKDSTYSLSSTLTLSKADYEKHKVYACEVTHQGLSSPVTKSFNRGEC
109 % of HeCon Ab (=100)	GpH7-A5/GpH7-B3 variant S298_04F/GpL16-k0 (antibody, human IgG1, kappa, mutation in one H chain only; also called He Ab S298_04F; S298F) heavy 1: not shown heavy 2: not shown light: DIVMTQSPLSLPVTPGEPASISCQASESLVHSNRNTYLHWYLQKPGQSPQLLIYKVSNRFSGVPDRFSGSGSGTDFTLKISRVEAEDVGVYYCSQNTHVPPTFGQGTKVEIERTVAAPSVFIFPPSDEQLKSGTASVVCLLNNFYPREAKVQWKVDNALQSGNSQESVTEQDSKDSTYSLSSTLTLSKADYEKHKVYACEVTHQGLSSPVTKSFNRGEC
107 % of HeCon Ab (=100)	GpH7-A5/GpH7-B3 variant S298_14T/GpL16-k0 (antibody, human IgG1, kappa, mutation in one H chain only; also called He Ab S298_14T; S298T) heavy 1: not shown heavy 2: not shown light: DIVMTQSPLSLPVTPGEPASISCQASESLVHSNRNTYLHWYLQKPGQSPQLLIYKVSNRFSGVPDRFSGSGSGTDFTLKISRVEAEDVGVYYCSQNTHVPPTFGQGTKVEIERTVAAPSVFIFPPSDEQLKSGTASVVCLLNNFYPREAKVQWKVDNALQSGNSQESVTEQDSKDSTYSLSSTLTLSKADYEKHKVYACEVTHQGLSSPVTKSFNRGEC
107 % of HeCon Ab (=100)	GpH7-A5/GpH7-B3 variant S298_07I/GpL16-k0 (antibody, human IgG1, kappa, mutation in one H chain only; also called He Ab S298_07I; S298I) heavy 1: not shown heavy 2: not shown light: DIVMTQSPLSLPVTPGEPASISCQASESLVHSNRNTYLHWYLQKPGQSPQLLIYKVSNRFSGVPDRFSGSGSGTDFTLKISRVEAEDVGVYYCSQNTHVPPTFGQGTKVEIERTVAAPSVFIFPPSDEQLKSGTASVVCLLNNFYPREAKVQWKVDNALQSGNSQESVTEQDSKDSTYSLSSTLTLSKADYEKHKVYACEVTHQGLSSPVTKSFNRGEC
109 % of HeCon Ab (=100)	GpH7-A5/GpH7-B3 variant S267_02A/GpL16-k0 (antibody, human IgG1, kappa, mutation in one H chain only; also called He Ab S267_02A; S267A) heavy 1: not shown heavy 2: not shown light: DIVMTQSPLSLPVTPGEPASISCQASESLVHSNRNTYLHWYLQKPGQSPQLLIYKVSNRFSGVPDRFSGSGSGTDFTLKISRVEAEDVGVYYCSQNTHVPPTFGQGTKVEIERTVAAPSVFIFPPSDEQLKSGTASVVCLLNNFYPREAKVQWKVDNALQSGNSQESVTEQDSKDSTYSLSSTLTLSKADYEKHKVYACEVTHQGLSSPVTKSFNRGEC
101 % of HeCon Ab (=100)	GpH7-A5/GpH7-B3 variant S239_09D/GpL16-k0 (antibody, human IgG1, kappa, mutation in one H chain only; also called He Ab S239_09D; S239D) heavy 1: not shown heavy 2: not shown light: DIVMTQSPLSLPVTPGEPASISCQASESLVHSNRNTYLHWYLQKPGQSPQLLIYKVSNRFSGVPDRFSGSGSGTDFTLKISRVEAEDVGVYYCSQNTHVPPTFGQGTKVEIERTVAAPSVFIFPPSDEQLKSGTASVVCLLNNFYPREAKVQWKVDNALQSGNSQESVTEQDSKDSTYSLSSTLTLSKADYEKHKVYACEVTHQGLSSPVTKSFNRGEC
109 % of HeCon Ab (=100)	GpH7-A5/GpH7-B3 variant S298_12R/GpL16-k0 (antibody, human IgG1, kappa, mutation in one H chain only; also called He Ab S298_12R; S298R) heavy 1: not shown heavy 2: not shown light: DIVMTQSPLSLPVTPGEPASISCQASESLVHSNRNTYLHWYLQKPGQSPQLLIYKVSNRFSGVPDRFSGSGSGTDFTLKISRVEAEDVGVYYCSQNTHVPPTFGQGTKVEIERTVAAPSVFIFPPSDEQLKSGTASVVCLLNNFYPREAKVQWKVDNALQSGNSQESVTEQDSKDSTYSLSSTLTLSKADYEKHKVYACEVTHQGLSSPVTKSFNRGEC
100 % of HeCon Ab (=100)	GpH7-A5/GpH7-B3 variant S267_16H/GpL16-k0 (antibody, human IgG1, kappa, mutation in one H chain only; also called He Ab S267_16H; S267H) heavy 1: not shown heavy 2: not shown light: DIVMTQSPLSLPVTPGEPASISCQASESLVHSNRNTYLHWYLQKPGQSPQLLIYKVSNRFSGVPDRFSGSGSGTDFTLKISRVEAEDVGVYYCSQNTHVPPTFGQGTKVEIERTVAAPSVFIFPPSDEQLKSGTASVVCLLNNFYPREAKVQWKVDNALQSGNSQESVTEQDSKDSTYSLSSTLTLSKADYEKHKVYACEVTHQGLSSPVTKSFNRGEC

Reference: patent US20180155451A1 (published 2018)
